From patent US20070254313A1, “Gnal Splice Variant and Uses Thereof” (AstraZeneca AB, priority 2003, published 2007)

What was measured:
[1] = molecular target: human adenosine A2a receptor (ADORA2A) (human) (UniProt P29274); assay: cell-based or functional assay
[2] = molecular target: human dopamine D1A receptor (human) (UniProt P21728); assay: cell-based or functional assay
Chain of human dopamine D1A receptor (human) (P21728 whole entry): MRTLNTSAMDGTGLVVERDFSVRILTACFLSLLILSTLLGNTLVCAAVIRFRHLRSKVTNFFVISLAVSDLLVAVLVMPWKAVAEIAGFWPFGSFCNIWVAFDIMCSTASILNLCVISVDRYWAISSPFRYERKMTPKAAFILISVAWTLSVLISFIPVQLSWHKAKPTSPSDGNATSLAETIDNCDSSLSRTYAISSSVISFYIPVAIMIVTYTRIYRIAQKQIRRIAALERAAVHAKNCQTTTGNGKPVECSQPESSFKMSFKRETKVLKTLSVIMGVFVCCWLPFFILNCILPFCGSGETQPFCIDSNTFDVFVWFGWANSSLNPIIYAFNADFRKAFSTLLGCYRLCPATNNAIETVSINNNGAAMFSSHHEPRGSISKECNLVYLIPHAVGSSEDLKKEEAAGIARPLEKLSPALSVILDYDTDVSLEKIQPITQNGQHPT

Chain of human Golf protein (P38405 2-381 limits assumed): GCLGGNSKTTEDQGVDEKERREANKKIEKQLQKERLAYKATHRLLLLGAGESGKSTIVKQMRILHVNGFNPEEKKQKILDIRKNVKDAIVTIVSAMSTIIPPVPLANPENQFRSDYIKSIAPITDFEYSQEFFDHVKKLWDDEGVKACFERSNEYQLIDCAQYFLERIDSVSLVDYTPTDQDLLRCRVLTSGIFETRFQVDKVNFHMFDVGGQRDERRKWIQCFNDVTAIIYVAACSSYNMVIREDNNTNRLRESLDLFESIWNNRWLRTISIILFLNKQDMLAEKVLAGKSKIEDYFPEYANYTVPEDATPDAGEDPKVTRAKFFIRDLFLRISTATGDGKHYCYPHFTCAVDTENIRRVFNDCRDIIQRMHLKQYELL
Chain of human adenosine A2a receptor (ADORA2A) (human) (P29274 whole entry): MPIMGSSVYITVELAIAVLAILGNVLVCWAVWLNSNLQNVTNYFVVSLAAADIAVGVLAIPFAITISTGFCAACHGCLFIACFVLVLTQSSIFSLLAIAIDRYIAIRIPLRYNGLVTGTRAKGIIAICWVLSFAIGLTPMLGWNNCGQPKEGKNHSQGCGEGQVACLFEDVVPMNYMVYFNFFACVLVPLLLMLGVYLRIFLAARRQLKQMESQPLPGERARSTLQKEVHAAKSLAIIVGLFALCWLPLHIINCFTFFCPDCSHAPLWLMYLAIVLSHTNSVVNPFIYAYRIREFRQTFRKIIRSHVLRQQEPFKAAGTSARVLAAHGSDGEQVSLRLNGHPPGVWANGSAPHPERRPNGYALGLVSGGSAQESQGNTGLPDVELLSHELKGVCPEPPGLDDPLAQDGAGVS

induction of GTPγS agonist signal, A2a receptor co-expressed with Golf in Sf9 cells [1]: 0.2
efficacy (Emax) of dopamine-induced [35S]-GTPγS binding, membranes of Sf9 cells co-expressing DRD1 and Golf [2]: 231%
Substance: human Golf protein (from UniProt P38405 2-381)
